Assay results reported in US20230119539A1, “TRACELESS LINKERS AND PROTEIN-CONJUGATES THEREOF” (Regeneron Pharmaceuticals, Inc., priority 2019, published 2023).

T1: human macrophage scavenger receptor 1 (MSR1) (human, UniProt P21757 1-451)
T1 sequence (looked up): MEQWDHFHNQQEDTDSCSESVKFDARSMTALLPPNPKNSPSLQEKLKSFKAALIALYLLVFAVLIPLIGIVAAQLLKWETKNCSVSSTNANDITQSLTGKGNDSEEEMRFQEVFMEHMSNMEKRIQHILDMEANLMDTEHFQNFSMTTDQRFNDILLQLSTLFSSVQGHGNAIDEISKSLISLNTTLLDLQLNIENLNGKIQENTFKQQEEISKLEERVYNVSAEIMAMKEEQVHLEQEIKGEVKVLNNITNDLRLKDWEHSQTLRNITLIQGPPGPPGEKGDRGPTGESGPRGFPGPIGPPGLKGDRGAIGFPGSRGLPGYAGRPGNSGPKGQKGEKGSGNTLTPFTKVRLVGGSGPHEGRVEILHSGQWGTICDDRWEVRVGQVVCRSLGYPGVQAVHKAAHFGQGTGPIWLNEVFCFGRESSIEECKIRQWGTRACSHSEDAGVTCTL

T2: GR (Homo sapiens, UniProt P04150)
T2 construct: host or cells: HEK293 (HEK293/GRLuc; HEK293/GRLuc/MSR1 additionally transduced with human MSR1)
T2 sequence (P04150 524-758 limits assumed): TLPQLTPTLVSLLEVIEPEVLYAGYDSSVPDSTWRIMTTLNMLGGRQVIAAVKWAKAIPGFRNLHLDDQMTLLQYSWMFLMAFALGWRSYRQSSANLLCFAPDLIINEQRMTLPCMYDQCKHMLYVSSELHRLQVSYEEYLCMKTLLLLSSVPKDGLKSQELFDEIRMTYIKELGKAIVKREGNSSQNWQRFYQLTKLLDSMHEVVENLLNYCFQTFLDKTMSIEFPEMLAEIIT


How the values were obtained:
[1] = biological target: T1, human macrophage scavenger receptor 1 …; assay: cell-based or functional assay
GR = biological target: T2, GR; assay: GR luciferase reporter assay in HEK293/GRLuc cells; format: cell-based; details: Table 8, ncADCs; for EC50: 48 hours; for S/N: highest RLU / RLU of untreated wells
Description: Activity of anti-MSR1 ncADCs were tested using an MSR1 ADC steroid responsive luciferase reporter assay. To generate the assay cell line, HEK293 cells were co-transfected with the pBind-GR (Promega, Cat #E158A) and pGL4.35 [Luc2P/9xGAL4UAS/Hygro] (Promega, Cat #E137A) vectors. The pBind-GR vector expresses a fusion protein consisting of the GR ligand binding and the yeast Gal4DNA-binding domain, which binds to the Gal4 upstream activation sequence (UAS) in the luciferase expression vector, that can induce luciferase expression following GR agonist binding. The cells were selected for at least 2 weeks in G418+hygromycin and the resulting cell line is referred to as HEK293/GRLuc. HEK293/GRLuc cells were then transduced with a human MSR1 lentiviral expression vector and 48 hours later cells were sorted for MSR1 positive cells. The resulting cell line is referred to as HEK293/GRLuc/MSR1.
Three-fold serial dilutions of ncADCs in assay buffer were added to the cells for 48 hours. The last well in the plate served as blank control containing only the assay media and was plotted as a continuation of the 3-fold serial dilution. Luciferase activity was determined using the One-Glo™ reagent (Promega, Cat #E6130). Relative light units (RLUs) were measured on an Envision luminometer (PerkinElmer) and EC50 values were determined using a four-parameter logistic equation over a 10-point dose response curve (GraphPad Prism). The signal to noise (S/N) was determined by taking the ratio of the highest RLU on the dose response curve to the RLU in the untreated wells.
To test the activity of GR agonist payloads disclosed herein, a cell-based GR responsive luciferase reporter assay was developed as described above.
Three-fold serial dilutions of free payloads were prepared in 100% DMSO, transferred to fresh assay media, and added to the cells for 48 hours. […] The last well in the plate served as blank control containing only the assay media and 0.2% DMSO (untreated well) and was plotted as a continuation of the 3-fold serial dilution. Luciferase activity was determined using the One-Glo™ reagent (Promega, Cat #E6130). Relative light units (RLUs) were measured on an Envision luminometer (PerkinElmer) and EC50 values were determined using a four-parameter logistic equation over a 10-point dose response curve (GraphPad Prism). The signal to noise (S/N) was determined by taking the ratio of the highest RLU on the dose response curve to the RLU in the untreated wells.

[2] = Lysosomal cleavage assay (payload release); format: in vitro ADME, human; details: 0 hours, 1 μM payload-equivalent ncADC, 37° C.; for Released Payload Precursor Concentration: precursor PIII-1 released; for Released Payload Concentration: steroid III released
Description: To confirm the release of payloads linked to antibodies via hemiaminal ether linkers, a lysosomal cleavage assay was performed. […] 200 μL of resulting mixture with 1 μM payload-equivalent ncADC was incubated at 37° C. with gentle shaking over a 24-hour period. A 20 μL aliquot was taken at 0, 0.5, 1.0, 2.0, 4.0, 8.0 and 24 hours and immediately transferred to a plate containing 80 μL cold acetonitrile to deactivate the lysosomal enzymes and precipitate the proteins. After centrifugation at 2,000 rpm for 5 minutes, aliquots of supernatant were diluted with an equal volume of water for LC-MS analysis to determine the amount of precursor and payload released from ncADC.

Molecule | EC50, GR luciferase reporter activity in HEK293/GRLuc/MSR1 cells [1] [pM] | S/N (highest RLU / RLU in untreated wells), HEK293/GRLuc/MSR1 cells [1] | EC50 (GR) [nM] | S/N (GR) | Released Payload Precursor Concentration [2] [nM] | Released Payload Concentration [2] [nM]
H1H21234N-N297Q-L1-PIII-1 (antibody, V domains shown, heavy-chain constant region (not part of this entry): N297Q (EU); linker-payload L1-PIII-1 (DIBAC-suc-PEG4-vcPAB-PIII-1, payload 6,11-2F-budesonide III) clicked onto azido-PEG3-amine on glutamines; DAR 4) VH: QVQLQESGPGLVKPSETLSLTCTVTGGSISRNYWSWIRQPPGKGLEWIGYIYYSGSIDYNPSLKSRVTISVDTSKNQFSLKLSSMTAADTAVYYCARDRWNWKYGMDVWGQGTTVIVSS VL: EIVLTQSPGTLSLSPGERATLSCRASQTVRNNYLAWYHQKPGQAPRLLIYGASSRATGIPDRFSGSGSGTDFTLTISRLEPEDFTVYYCHQYGNSPWTFGQGTKMEIKR | 97.3 | 143 | 50.6 | 16.4 | 0 | 0
H1H21234N-N297Q-L3-PIII-1 (antibody, V domains shown, heavy-chain constant region (not part of this entry): N297Q (EU); linker-payload L3-PIII-1 (DIBAC-suc-PEG4-GGF-PIII-1) clicked onto azido-PEG3-amine on glutamines; DAR 4) VH: QVQLQESGPGLVKPSETLSLTCTVTGGSISRNYWSWIRQPPGKGLEWIGYIYYSGSIDYNPSLKSRVTISVDTSKNQFSLKLSSMTAADTAVYYCARDRWNWKYGMDVWGQGTTVIVSS VL: EIVLTQSPGTLSLSPGERATLSCRASQTVRNNYLAWYHQKPGQAPRLLIYGASSRATGIPDRFSGSGSGTDFTLTISRLEPEDFTVYYCHQYGNSPWTFGQGTKMEIKR | 85.4 | 269 | 47.6 | 17.5 | 0 | 10.1
